Drawing on US20250333515A1, this text covers Kd for one substance.

In this assay the target is biotinylated recombinant human CLL-1 extracellular domain protein, isoform with lysine at amino acid position 244 (human) (UniProt Q5QGZ9). Nature of the assay: Exp 1 (= Octet, CLL-1-K244 of FIG. 12B); Exp 2: ND.
Sequence of biotinylated recombinant human CLL-1 extracellular domain protein, isoform with lysine at amino acid position 244 (human) (Q5QGZ9 65-265): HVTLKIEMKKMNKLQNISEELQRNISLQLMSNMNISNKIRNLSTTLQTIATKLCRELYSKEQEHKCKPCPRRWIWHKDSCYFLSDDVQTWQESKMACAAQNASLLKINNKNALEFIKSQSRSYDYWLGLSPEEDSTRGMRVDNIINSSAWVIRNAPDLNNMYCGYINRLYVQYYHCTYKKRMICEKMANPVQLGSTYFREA

Take + Control: the Kd is 0.127 nM.
